A word on the stoichiometry N: it is the number of molecules, sites or subunits per partner or assembly.

Consider one substance from doi:10.1101/2025.06.25.661420.

This assay addresses SUMO fusion of the glycophorin A TM domain. In words: SEC. A general note: In gel filtration, larger molecules generally elute earlier.

The substance “SUMO fusion of the glycophorin A TM domain (domain or fragment)” came in with a stoichiometry N of 2.
